The source of these data is paper PMC10127692, “SARS-CoV-2 SUD2 and Nsp5 Conspire to Boost Apoptosis of Respiratory Epithelial Cells via an Augmented Interaction with the G-Quadruplex of BclII”.

In series [1] the target is T1, SUD2core (SUD2-N+M of Nsp3) (SARS-CoV-2, UniProt P0DTC1 1230-1493). The series is described as follows: pull-down; 100 mM K+; positive control. The following applies: protein: recombinant; tags: His; label: 5'-biotin; G4.
Series [2] deals with T1, SUD2core (SUD2-N+M of Nsp3). The series is described as follows: BLI; 100 mM K+. The following applies: protein: recombinant; tags: His; label: 5'-biotin (BLI, pulldown); Cy5 (EMSA); G4, folded in 100 mM K+. In general terms: In BLI a coated tip is dipped into the sample, and binding shifts an interference pattern.
Series [3] has as its target SUD2core (SUD2-N+M of Nsp3);Nsp5 (SARS-CoV-2;SARS-CoV-2, UniProt P0DTC1;P0DTC1 1230-1493;3264-3569, |). The series is described as follows: pull-down; 100 mM K+; Nsp5 added. The following applies: protein: recombinant;recombinant; tags: His;GST; label: 5'-biotin (BLI, pulldown); Cy5 (EMSA); G4, folded in 100 mM K+. On the technique in general: In EMSA bound probe runs differently from free probe, usually more slowly.

Consider TTGAGGGTGGGTAGGGTGGGTAA (structured_DNA) [MYCG4], for which the binding result in series [1] was “binds”.

GGGCGCGGGAGGAATTGGGCGGG (structured_DNA) [Bcl2G4WT (G4 folded)]: in series [2], the Kd was 85 nM. For the same molecule, the binding signal in series [3] is 6.3 fold SUD2core retained vs without Nsp5.

As a reminder, the Kd is the constant that tells how readily two partners part at equilibrium.
